From US20120178908A1 (Novo Nordisk, published 2012)

Assays:
hTLT-1 ECD-HPC4 M91A = target: T1, hTLT-1 ECD-HPC4 M91A (human, UniProt Q86YW5 16-162); experiment: SPR (ProteOn), mAb captured by anti-hFc, 100 nM mutant
T1 construct: As m27; also called Ala mutant 24
T1 chain: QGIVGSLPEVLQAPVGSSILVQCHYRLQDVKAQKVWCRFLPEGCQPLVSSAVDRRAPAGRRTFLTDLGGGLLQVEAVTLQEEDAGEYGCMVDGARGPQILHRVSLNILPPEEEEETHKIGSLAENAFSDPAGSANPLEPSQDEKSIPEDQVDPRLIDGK
Protocol: Anti-hFc Polyclonal antibody was immobilized onto separate flow cells of a GLM sensor chip using a 1:1 mixture of 0.4 M EDAC [1-ethyl-3-(3-dimethylaminopropyl) carbodiimide hydrochloride] and 0.1 M Sulfo-NHS [N-hydroxysulfosuccinimide]. Each anti-body was diluted in 10 mM sodium acetate pH 5.0 to a concentration of […], and was immobilized to an individual flow cell at 30 μl/min for 240s. The antibodies were immobilized to flow cells A1-A6 (horizontal direction). After immobilization, the active sites on the flow cell were blocked with 1 M ethanolamine. The final immobilization level of capture antibody typically ranged from approximately 9,000 to 10,000 RU in one experiment. Capture of the anti-TLT1 antibodies 0197-0000-0023, 0197-0000-0051, 0197-0000-0061 and 0197-0000-0062 was conducted by diluting to […] into HBS-EP buffer (10 mM HEPES, 150 mM NaCl, 3 mM EDTA, 0.05% surfactant P20, pH 7.4) and injected at 30 μl/min for 60s in vertical direction, creating interspot reference points with only anti-human Fc antibodies. The final capture level of test antibodies typically ranged from approximately 200 to 300 RU in one experiment. […] Each hTLT-1 ECD-HPC4 protein was diluted to 100 nM, based on the calculated average Mw, into HBS-EP buffer and injected at 30 μl/min for 240s. […]

[1] = target: T2, TLT1 (human TLT-1, reagent of the SPR studies, source NN) (human, UniProt Q86YW5 16-162, limits assumed); experiment: SPR (Biacore), mAb captured via anti-human Fc mAb, TLT1 as analyte
T2 sequence: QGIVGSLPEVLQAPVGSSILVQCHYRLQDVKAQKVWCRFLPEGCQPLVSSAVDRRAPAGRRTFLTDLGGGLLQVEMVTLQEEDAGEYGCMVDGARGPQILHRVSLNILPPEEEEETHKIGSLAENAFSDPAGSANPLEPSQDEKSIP
Protocol: The mAbs of interest were either immobilized directly to a CM5 chip or by capture via a human Fc capture mAb immobilized to a CM5 chip.
Capture via human Fc mAb: Human Fc mAb was immobilised to approx 10.000 RU. The mAb of interest was added (approx 100 nM). Two-fold dilutions of TLT1 from 200 nM to 0.2 nM were tested. Running and dilution buffer: 10 mM HEPES, 150 mM, 0.005% p20, pH 7.4. Regeneration was obtained in 3 M MgCl₂

binding result (hTLT-1 ECD-HPC4 M91A): binds
Kd [1]: 3.75 nM
koff [1]: 0.0035 s⁻¹
kon [1]: 932000 M⁻¹ s⁻¹
B1: mAb 0061 HC2; LC2 (antibody, V domains shown)
VH: EVKLLESGGGLVQPGGSLKLSCAASGFDFSRYWMTWVRQAPGKGLEWIGEINPDSSTINYNPSLKDKFIISRDNAKNTLYLQMSEVRSEDTALYYCASGVFTSWGQGTLVTVSA
VL: DVVMTQTPLSLPVSLGDQASISCRSSQSLVHRNGNTYFHWALQKPGQSPKLLIYKVSNRFSGVPDRFSGSGSGTDFTLKISRVEAEDLGVYFCSQSTHVPYTFGGGTKLEIKR
notes: also called 0197-0000-0061; 0012HC.T60N + 0012LC.C36A
